Results on 16 substances are retold here after US12559863B2, “Macrocyclic modulators of disease associated protein misfolding and aggregation” (RESQ BIOTECH, priority 2017, dated 2026).

One assay has as its target T1, Aβ42-GFP (Homo sapiens, UniProt P05067).
T1 construct: a chimeric fusion of the human Aβ(1-42) peptide (Aβ42) with GFP; expressed in transfected cells; host or cells: E. coli BL21(DE3)
Kind of assay: High-throughput sequencing of pSICLOPPS vectors isolated after bacterial sorting for enhanced Aβ42-GFP fluorescence. The following applies: after the second round of bacterial sorting; relative to total TXXXR reads. The text has this: On the other hand, very few bioactive sequences resembling AβC5-34 should exist. […] The peptide-encoding vectors contained in these clones were isolated and the peptide-encoding region of approximately 5.6 million of these plasmids was sequenced using an Ion Torrent high-throughput sequencing platform. […] First, pentapeptides were the dominant peptide species within the sorted pool (FIG. 12D), in agreement with previous observations (FIG. 8G). Second, the most prevalent motif among the selected pentapeptide sequences were TXXXR pentapeptides (˜47% of the selected pentapeptide-encoding pSICLOPPS plasmids; ˜42% of the unique selected pentapeptide sequences) (Table 1), in accordance with previous observations (FIG. 8G). […] At position 2, Thr, Ala, and Val were preferred, while aromatic residues (Phe, Trp, Tyr) were completely excluded from the selected TXXXR peptide pool, in full agreement with our site-directed mutagenesis studies. At the highly variable position 3, the complete absence of the negatively charged amino acids Glu and Asp among the selected sequences was notable (FIG. 12E). […] It is noteworthy, that Lys and Gln residues were practically absent from all positions, while the β sheet-breaking amino acid Pro that is typically included in designed peptide-based inhibitors of amyloid aggregation appeared with strikingly low frequencies (FIG. 12E).
Electrocompetent E. coli BL21(DE3) cells (Novagen, USA) carrying either the expression vector pETSOD1(A4V)-GFP, which produces SOD1(A4V)-GFP under control of the strong bacteriophage T7 promoter, or pETAβ42-GFP, which produces Aβ42-GFP under control of the T7 promoter, were co-transformed with the combined pSICLOPPS-NuX1X2X3-X5 vector library. Approximately 10^8 transformants carrying both the vector library and either pETSOD1(A4V)-GFP or pETAβ42-GFP vectors were harvested, pooled together, and grown in Luria-Bertani (LB) liquid medium containing either 0.005% (pETSOD1(A4F)-GFP) or 0.002% (pETAβ42-GFP) L-arabinose—the inducer of cyclic peptide production—at 37° C. with shaking. When the optical density at 600 nm (OD600) of the bacterial culture was about 0.5, 0.01 (pETSOD1(A4F)-GFP) or 0.1 (pETAβ42-GFP) mM isopropyl-β-D-thiogalactoside (IPTG) was added to the medium to induce overexpression of the reporter. […] The isolated cells were re-grown and screened for additional rounds in an identical manner until the desired enrichment in high-fluorescence clones was achieved.
For the characterization of the initial libraries, a combined pSICLOPPS-NuX1X2X3-X5 vector library was prepared containing approximately equal amounts of each one of the tetra-, penta- and hexapeptide sub-libraries. These samples were digested with NcoI and BsrGI and the resulting ˜250 bp product that contained the variable peptide-encoding region was isolated. High-throughput sequencing analysis was performed using an Ion Torrent high-throughput sequencing platform. From the obtained data, all the sequences with mismatches outside of the variable peptide-encoding region were removed, and only the 12-, 15- or 18-bp-long peptide-encoding sequences were subjected to further analysis. The libraries of the selected cyclic peptides that enhance either SOD1(A4V)-GFP or Aβ42-GFP fluorescence were sequenced in a similar manner, with the only exception being that all sequences including stop codons were discarded from subsequent analysis.
AβC5-102 (TTYNR; cyclic): the “Reads/Total TXXXR reads (%)” value was found to be 0.319%.

As to AβC5-105 (TVRWR; cyclic), the “Reads/Total TXXXR reads (%)” value amounted to 0.287%.

As to AβC5-117 (TTRCR; cyclic), the “Reads/Total TXXXR reads (%)” value came to 0.223%.

AβC5-118 (TTFWR; cyclic): the “Reads/Total TXXXR reads (%)” value stood at 0.222%.

For the substance AβC5-121 (TIKDR; cyclic), the “Reads/Total TXXXR reads (%)” value is 0.209%.

Consider AβC5-123 (TTVHR; cyclic), for which the “Reads/Total TXXXR reads (%)” value is listed as 0.177%.

For AβC5-126 (TTLLR; cyclic), the “Reads/Total TXXXR reads (%)” value amounted to 0.159%.

For AβC5-129 (TTLFR; cyclic), the “Reads/Total TXXXR reads (%)” value is listed as 0.138%.

For AβC5-130 (TAYHR; cyclic), the “Reads/Total TXXXR reads (%)” value is on record as 0.136%.

On to AβC5-136 (TALHR; cyclic), for which the “Reads/Total TXXXR reads (%)” value came to 0.107%.

In the case of AβC5-139 (TTSPR; cyclic), the “Reads/Total TXXXR reads (%)” value was 0.100%.

Regarding AβC5-146 (TTWSR; cyclic), the “Reads/Total TXXXR reads (%)” value turned out to be 0.085%.

On to AβC5-147 (TAMHR; cyclic), for which the “Reads/Total TXXXR reads (%)” value was 0.085%.

Regarding AβC5-155 (TSLDR; cyclic), the “Reads/Total TXXXR reads (%)” value is reported as 0.066%.

As for AβC5-158 (TTGAR; cyclic), the “Reads/Total TXXXR reads (%)” value came to 0.062%.

Consider AβC5-162 (TSVWR; cyclic), for which the “Reads/Total TXXXR reads (%)” value came out at 0.058%.

The assay is the same for the next values; noted with them: after the second round of bacterial sorting; relative to total pentapeptide reads.
Consider AβC5-102 (TTYNR; cyclic), for which the “Reads/Total pentapeptide reads (%)” value amounted to 0.149%.

Regarding AβC5-105 (TVRWR; cyclic), the “Reads/Total pentapeptide reads (%)” value stood at 0.134%.

As to AβC5-117 (TTRCR; cyclic), the “Reads/Total pentapeptide reads (%)” value is recorded as 0.104%.

As to AβC5-118 (TTFWR; cyclic), the “Reads/Total pentapeptide reads (%)” value is 0.104%.

Consider AβC5-121 (TIKDR; cyclic), for which the “Reads/Total pentapeptide reads (%)” value is listed as 0.098%.

Regarding AβC5-123 (TTVHR; cyclic), the “Reads/Total pentapeptide reads (%)” value came out at 0.083%.

With AβC5-126 (TTLLR; cyclic), the “Reads/Total pentapeptide reads (%)” value stood at 0.074%.

As for AβC5-129 (TTLFR; cyclic), the “Reads/Total pentapeptide reads (%)” value is reported as 0.065%.

With AβC5-130 (TAYHR; cyclic), the “Reads/Total pentapeptide reads (%)” value is on record as 0.064%.

AβC5-136 (TALHR; cyclic): the “Reads/Total pentapeptide reads (%)” value was determined as 0.050%.

In the case of AβC5-139 (TTSPR; cyclic), the “Reads/Total pentapeptide reads (%)” value came out at 0.047%.

With AβC5-146 (TTWSR; cyclic), the “Reads/Total pentapeptide reads (%)” value is given as 0.040%.

Turning to AβC5-147 (TAMHR; cyclic), the “Reads/Total pentapeptide reads (%)” value was 0.040%.

Regarding AβC5-155 (TSLDR; cyclic), the “Reads/Total pentapeptide reads (%)” value turned out to be 0.031%.

With AβC5-158 (TTGAR; cyclic), the “Reads/Total pentapeptide reads (%)” value amounted to 0.029%.

As for AβC5-162 (TSVWR; cyclic), the “Reads/Total pentapeptide reads (%)” value was 0.027%.

Staying with this assay, now noted: after the second round of bacterial sorting; relative to total peptide reads.
As for AβC5-102 (TTYNR; cyclic), the “Reads/Total peptide reads (%)” value worked out at 0.134%.

As for AβC5-105 (TVRWR; cyclic), the “Reads/Total peptide reads (%)” value is reported as 0.120%.

For the substance AβC5-117 (TTRCR; cyclic), the “Reads/Total peptide reads (%)” value worked out at 0.094%.

For the substance AβC5-118 (TTFWR; cyclic), the “Reads/Total peptide reads (%)” value is listed as 0.093%.

In the case of AβC5-121 (TIKDR; cyclic), the “Reads/Total peptide reads (%)” value worked out at 0.088%.

AβC5-123 (TTVHR; cyclic): the “Reads/Total peptide reads (%)” value came out at 0.074%.

Regarding AβC5-126 (TTLLR; cyclic), the “Reads/Total peptide reads (%)” value is 0.067%.

Take AβC5-129 (TTLFR; cyclic): the “Reads/Total peptide reads (%)” value was determined as 0.058%.

For AβC5-130 (TAYHR; cyclic), the “Reads/Total peptide reads (%)” value stood at 0.057%.

In the case of AβC5-136 (TALHR; cyclic), the “Reads/Total peptide reads (%)” value is given as 0.045%.

Consider AβC5-139 (TTSPR; cyclic), for which the “Reads/Total peptide reads (%)” value is reported as 0.042%.

Consider AβC5-146 (TTWSR; cyclic), for which the “Reads/Total peptide reads (%)” value was found to be 0.036%.

In the case of AβC5-147 (TAMHR; cyclic), the “Reads/Total peptide reads (%)” value was 0.036%.

On to AβC5-155 (TSLDR; cyclic), for which the “Reads/Total peptide reads (%)” value is 0.028%.

For the substance AβC5-158 (TTGAR; cyclic), the “Reads/Total peptide reads (%)” value is 0.026%.

AβC5-162 (TSVWR; cyclic): the “Reads/Total peptide reads (%)” value came out at 0.024%.

The assay is the same for the next values; noted with them: high-throughput sequencing of isolated pSICLOPPS-NuX1X2X3-X5 vectors after the second round of bacterial sorting for enhanced Aβ42-GFP fluorescence; selected cyclo-TXXXR pentapeptides.
As for AβC5-102 (TTYNR; cyclic), the Number of reads is given as 6,067.

With AβC5-105 (TVRWR; cyclic), the Number of reads was 5,450.

Turning to AβC5-117 (TTRCR; cyclic), the Number of reads is listed as 4,237.

In the case of AβC5-118 (TTFWR; cyclic), the Number of reads is given as 4,216.

Take AβC5-121 (TIKDR; cyclic): the Number of reads is given as 3,970.

Consider AβC5-123 (TTVHR; cyclic), for which the Number of reads was 3,371.

For the substance AβC5-126 (TTLLR; cyclic), the Number of reads is 3,016.

On to AβC5-129 (TTLFR; cyclic), for which the Number of reads is given as 2,630.

With AβC5-130 (TAYHR; cyclic), the Number of reads is 2,594.

As to AβC5-136 (TALHR; cyclic), the Number of reads is recorded as 2,026.

Consider AβC5-139 (TTSPR; cyclic), for which the Number of reads is reported as 1,904.

As to AβC5-146 (TTWSR; cyclic), the Number of reads is listed as 1,612.

For the substance AβC5-147 (TAMHR; cyclic), the Number of reads is given as 1,611.

For AβC5-155 (TSLDR; cyclic), the Number of reads was 1,251.

Consider AβC5-158 (TTGAR; cyclic), for which the Number of reads was 1,172.

Regarding AβC5-162 (TSVWR; cyclic), the Number of reads is listed as 1,094.
